In assay [1] the target is T1, FAM19A5 epitope fragment F2 conjugated to BSA (human, conjugated to BSA).
T1 peptide: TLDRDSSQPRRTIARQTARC
Put plainly: ELISA on peptide-BSA coated on the plate. The method, then: (§1) Overlapping peptide fragments (F1-F6, See FIG. 1) of the human FAM19A5 protein were synthesized and conjugated to BSA. Binding of the different anti-FAM19A5 antibodies to the BSA-conjugated peptide fragments F1-F6 was determined by ELISA assay. Briefly, FAM19A5 fragment F1-F6 (diluted to 1 μg/mL in 50 mM carbonate buffer (Biosesang) or to 20 μg/mL for high concentration analysis) were used to coat the wells of 96-well immuno plates (Thermo Scientific) (100 μL/well) overnight at 4° C. and then subsequently washed twice in 1×PBS. The plates were then blocked with the blocking buffer (100 μL/well) for 1 hour at room temperature. During the 1-hour incubation, the relevant anti-FAM19A5 antibodies were diluted to 1 μg/mL (or 20 μg/mL for high concentration analysis) in the diluent buffer. Once the plates were washed (2× using 1×PBS), the diluted anti-FAM19A5 antibodies were added to the appropriate wells, and the plates were incubated at room temperature for 1 hour. The plates were subsequently washed for a total of five times using the washing buffer. Next, the ODP substrate (prepared by dissolving one ODP tablet (0-phenylenediamine Dihydrochloride, Thermo) into 9 mL of sterilized deionized water and 1 mL of 10× stable Peroxide Stable buffer (Theromo)) was added to each of the wells, and the color change reaction was allowed to occur for 10 minutes. This reaction was stopped by adding 100 μL of 2N H2SO4 (Daejung) to the wells. The absorption value of each of the wells was detected at 492 nm using a 96-well microplate reader (Molecular Device).
(ELISA stands for enzyme-linked immunosorbent assay.)

For assay [2], the target named is T2, FAM19A5 epitope fragment F3 conjugated to BSA (human, conjugated to BSA).
T2 peptide: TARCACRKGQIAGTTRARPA
In words: ELISA on peptide-BSA coated on the plate. How it is done: as §1

Assay [3] concerns the target T3, FAM19A5 epitope fragment F4 conjugated to BSA (human, conjugated to BSA).
T3 peptide: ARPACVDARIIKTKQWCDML
In words: ELISA on peptide-BSA coated on the plate. How it is done: as §1

Assay [4] has as its target T4, FAM19A5 epitope fragment F5 conjugated to BSA (human, conjugated to BSA).
T4 peptide: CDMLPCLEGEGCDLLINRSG
Put plainly: ELISA on peptide-BSA coated on the plate. The method, then: as §1

The target in assay [5] is T5, FAM19A5 epitope fragment F6 conjugated to BSA (human, conjugated to BSA).
T5 peptide: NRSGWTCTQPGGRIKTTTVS
In words: ELISA on peptide-BSA coated on the plate. How it is done:
as §1

Assay [6] concerns the target T6, FAM19A5 epitope fragment F1 conjugated to BSA (human, also: conjugated to BSA).
T6 peptide: QLAAGTCEIVTLDR
Put plainly: ELISA on peptide-BSA coated on the plate. The method, then: as §1

The target in a further assay is T7, FAM19A5 mutant M1 (human).
T7 construct: Region EP1 is replaced with the FAM19A1-4 consensus; The fusion to the phage protein is not described
T7 chain: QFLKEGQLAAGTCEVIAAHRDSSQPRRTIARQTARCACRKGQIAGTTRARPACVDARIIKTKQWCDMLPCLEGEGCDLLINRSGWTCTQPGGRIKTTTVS
In words: ELISA with phage-displayed FAM19A5 mutants.

The target in a further assay is T8, FAM19A5 mutant M2 (human).
T8 construct: Expressed on phage; It has substitutions at amino acid residues 21-25 (EP2)
T8 chain: T7 chain with V15I, I16V, A17T, A18L, H19D, D21C, S22C, S23N, Q24K, P25N
Put plainly: ELISA with phage-displayed FAM19A5 mutants.

A further assay concerns the target T9, FAM19A5 mutant M3 (human).
T9 construct: Expressed on phage; Region EP3 is replaced with the FAM19A1-4 consensus
T9 chain: T7 chain with V15I, I16V, A17T, A18L, H19D, R27I, T28E, I29E, A30R, R31S
Put plainly: ELISA with phage-displayed FAM19A5 mutants.

A further assay addresses T10, FAM19A5 mutant M4 (human).
T10 construct: Expressed on phage; Region EP4 is replaced with the FAM19A1-4 consensus
T10 chain: T7 chain with V15I, I16V, A17T, A18L, H19D, A34V, R35K, A37S, R39F, K40P
Put plainly: ELISA with phage-displayed FAM19A5 mutants.

The next assay deals with T11, FAM19A5 mutant M6 (human).
T11 construct: Expressed on phage; Region EP6 is replaced with the FAM19A1-4 consensus
T11 chain: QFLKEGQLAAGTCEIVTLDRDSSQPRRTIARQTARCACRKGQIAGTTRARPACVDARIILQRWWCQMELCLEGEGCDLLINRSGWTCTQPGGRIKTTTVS
Put plainly: ELISA with phage-displayed FAM19A5 mutants.

A further assay has as its target T12, FAM19A5 mutant M7 (human).
T12 construct: Expressed on phage; Region EP7 is replaced with the FAM19A1-4 consensus
T12 chain: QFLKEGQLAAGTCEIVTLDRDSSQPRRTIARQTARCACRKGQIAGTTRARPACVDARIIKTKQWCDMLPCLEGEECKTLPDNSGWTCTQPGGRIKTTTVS
In words: ELISA with phage-displayed FAM19A5 mutants.

The target of the next assay is T13, FAM19A5 mutant M8 (human).
T13 construct: Expressed on phage; Region EP8 is replaced with the FAM19A1-4 consensus
T13 chain: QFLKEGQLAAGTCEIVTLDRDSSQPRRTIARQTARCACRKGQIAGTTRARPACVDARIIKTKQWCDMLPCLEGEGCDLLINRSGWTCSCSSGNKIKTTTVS
In words: ELISA with phage-displayed FAM19A5 mutants.

For assay [7], the target named is T1, FAM19A5 epitope fragment F2 conjugated …. In words: ELISA, antigen coated on the plate, antibody in solution, absorbance at 492 nm. The method, then:
as §1

Assay [8] has as its target T2, FAM19A5 epitope fragment F3 conjugated …. The description is as above. How it is done: as §1
Assay [9] addresses T3, FAM19A5 epitope fragment F4 conjugated …. Described as above. How it is done:
as §1

Assay [10] addresses T4, FAM19A5 epitope fragment F5 conjugated …. The description is as above. How it is done:
as §1

The target of assay [11] is T5, FAM19A5 epitope fragment F6 conjugated …. The assay is described as above. The method, then:
as §1

The target in assay [12] is T6, FAM19A5 epitope fragment F1 conjugated …. The description is as above. How it is done:
as §1

For assay [13], the target named is T1, FAM19A5 epitope fragment F2 conjugated …. In words: ELISA on coated BSA-conjugated peptide. The method, then:
as §1, with “Next, the ODP substrate (prepared by dissolving one ODP tablet (0-phenylenediamine Dihydrochloride, Thermo) into 9 mL of sterilized deionized water and 1 mL of 10× stable Peroxide Stable buffer (Theromo)) was added to each of the wells, and the color change reaction was allowed to occur for 10 minutes. This reaction was stopped by adding 100 μL of 2N H2SO4 (Daejung) to the wells.” left out

Substitutions are numbered along the chain they refer to. Where no end group is shown, it is not given here.

B1: anti-FAM19A5 antibody 2-13 (antibody, V domains shown)
VH: AVTLDESGGGLQTPGGALSLVCKASGFTFSSHGMFWVRQTPGKGLEYVAEITNDGSGTNYGSAVKGRATISRDNGQSTVRLQLNNLRAEDTGTYFCARSTYECPGGFSCWGDTGQIDAWGHGTEVIVSS
VL: ALTQPSSVSANPGETVKITCSGGSYSYGWFQQKSPGSALVTVIYWDDERPSDIPSRFSGALSGSTNTLTITGVQADDEAVYFCGTEDISGTAGVFGAGTTLTVL
notes: Chicken-derived scFv clone; also called Anti-FAM19A5 ("2-13")
Consider B1, for which the binding result in assay [1], in assay [2], in assay [3], in assay [4], in [5] and in assay [6] was “no binding” each time. In addition, the binding result with FAM19A5 mutant M1 was “binds”; in the assay with FAM19A5 mutant M2 it was “binds”; in the assay with FAM19A5 mutant M3, “binds”; with FAM19A5 mutant M4, “no binding”; in the assay with FAM19A5 mutant M6, “binds”; in the assay with FAM19A5 mutant M7, “binds”. Moreover, the binding result with FAM19A5 mutant M8 is “no binding”. For the same molecule, the O.D. turned out to be 0.06 in assay [7]; 0.06 in assay [8]; 0.05 in assay [9]; 0.05 in assay [10]; 0.06 in assay [11]; 0.06 in [12].

B2: anti-FAM19A5 antibody 1-65 (antibody, V domains shown)
VH: AVTLDESGGGLQTPGGALSLVCKASGFTFSSYQMGWVRQAPGKGLEWVGVINKSGSDTSYGSAVKGRATISRDNGQSTVRLQLNNLRAEDTGTYFCAKGSASYITAATIDAWGHGTEVIVSS
VL: ALTQPSSVSANPGETVKITCSGGGSSGYGYGWYQQKSPSSAPLTVIYWNDKRPSDIPSRFSGSKSGSTHTLTITGVQAEDEAVYFCGNDDYSSDSGYVGVFGAGTTLTVL
For the molecule B2, the binding result is reported as “no binding” in [1]; “no binding” in [2]; “no binding” in assay [3]; “no binding” in assay [5]; “no binding” in assay [6]; “binds” in the assay with FAM19A5 mutant M1. Further, the binding result with FAM19A5 mutant M2 was “binds”; with FAM19A5 mutant M3, “binds”; in the assay with FAM19A5 mutant M4 it was “binds”; with FAM19A5 mutant M6 it was “no binding”; with FAM19A5 mutant M7, “no binding”; in the assay with FAM19A5 mutant M8, “no binding”. In addition, the O.D. is 0.06 in assay [7]; 0.06 in [8]; 0.06 in assay [9]; 1.5 in [10]; 0.05 in assay [11]; 0.06 in assay [12].

B3: anti-FAM19A5 antibody 3-2 (antibody, V domains shown)
VH: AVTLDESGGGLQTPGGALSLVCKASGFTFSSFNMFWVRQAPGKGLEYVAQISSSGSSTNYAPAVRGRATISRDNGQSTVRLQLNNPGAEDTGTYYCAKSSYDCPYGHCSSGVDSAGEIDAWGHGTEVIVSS
VL: ALTQPSSVSANPGETVKITCSGGGSYAGSYYYGWYQQKAPGSAPVTLIYESNKRPSDIPSRFSGSTSGSTATLTITGVQADDEAIYYCGSWDSSNGGIFGAGTTLTVL
notes: The text reports one result for both formats, so one molecule is written here; also called h3-2; m3-2
Turning to B3, the binding result with FAM19A5 mutant M1 is “binds”; with FAM19A5 mutant M2, “no binding”; with FAM19A5 mutant M3, “binds”; with FAM19A5 mutant M4 it was “binds”; in the assay with FAM19A5 mutant M6 it was “binds”; with FAM19A5 mutant M7 it was “binds”. Moreover, the binding result in the assay with FAM19A5 mutant M8 was “binds”. In [7], the O.D. worked out at 3.3.

B4: anti-FAM19A5 antibody 1-28 (antibody, V domains shown)
VH: AVTLDESGGGLQTPGGALSLVCKASGFDFSDYGMGWVRQAPGKGLEWVAAIRSDGSNPSYGSAVKGRATISKDNGRSTVRLQLNNLRAEDTATYYCAKDGNGYCALDAYRSGGYSCGVYPGSIDAWGHGTEVIVSS
VL: ALTQPSSVSANLEGTVEITCSGSGYGYGWYQQKSPGSAPVTVIYQNDKRPSDIPSRFSGSKSGSTGTLTITGVQVEDEAVYYCGSEDSSTLAGIFGAGTTLTVL
notes: Chicken-derived scFv clone; also called Anti-FAM19A5 ("1-28")
Turning to B4, the binding result in assay [13] was “binds”; in the assay with FAM19A5 mutant M1, “binds”; in the assay with FAM19A5 mutant M2 it was “no binding”; in the assay with FAM19A5 mutant M3 it was “binds”; with FAM19A5 mutant M4 it was “binds”; with FAM19A5 mutant M6, “binds”. Besides, the binding result in the assay with FAM19A5 mutant M7 and with FAM19A5 mutant M8 was “binds” each time.

The values above are taken from US20200299373A1 (NEURACLE SCIENCE, published 2020).
